Test results as given in article PMC8489356.
Several values for one entry are separate records, joined by “and”; a condition that tells them apart may be missing. Equal entries are not always repeated.

Legend:
[1] = molecular target: His-tagged recombinant human prosaposin (PSAP) (human) (UniProt P07602); experiment: ELISA
[2] = molecular target: His-tagged recombinant human sortilin (human) (UniProt Q99523); experiment: ELISA
UniProt Q99523, sequence (Q99523 78-755): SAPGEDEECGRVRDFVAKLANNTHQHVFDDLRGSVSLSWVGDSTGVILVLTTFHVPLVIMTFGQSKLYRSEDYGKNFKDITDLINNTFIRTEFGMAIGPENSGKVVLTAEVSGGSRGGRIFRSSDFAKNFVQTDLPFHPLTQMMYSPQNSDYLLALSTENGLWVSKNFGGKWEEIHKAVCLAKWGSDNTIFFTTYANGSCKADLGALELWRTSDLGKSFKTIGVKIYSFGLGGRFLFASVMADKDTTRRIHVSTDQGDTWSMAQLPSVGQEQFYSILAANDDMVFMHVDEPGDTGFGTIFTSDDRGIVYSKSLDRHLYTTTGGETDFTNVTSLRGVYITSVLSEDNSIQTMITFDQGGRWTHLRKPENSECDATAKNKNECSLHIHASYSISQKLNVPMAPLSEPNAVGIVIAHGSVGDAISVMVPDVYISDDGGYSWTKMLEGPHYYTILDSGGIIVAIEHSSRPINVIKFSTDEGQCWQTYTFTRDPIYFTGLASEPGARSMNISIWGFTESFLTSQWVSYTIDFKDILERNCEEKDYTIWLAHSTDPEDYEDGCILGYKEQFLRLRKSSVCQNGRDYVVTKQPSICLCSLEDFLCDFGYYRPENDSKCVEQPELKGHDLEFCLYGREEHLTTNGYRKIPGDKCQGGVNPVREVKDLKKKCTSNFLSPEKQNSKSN

UniProt P07602, sequence (P07602 17-524): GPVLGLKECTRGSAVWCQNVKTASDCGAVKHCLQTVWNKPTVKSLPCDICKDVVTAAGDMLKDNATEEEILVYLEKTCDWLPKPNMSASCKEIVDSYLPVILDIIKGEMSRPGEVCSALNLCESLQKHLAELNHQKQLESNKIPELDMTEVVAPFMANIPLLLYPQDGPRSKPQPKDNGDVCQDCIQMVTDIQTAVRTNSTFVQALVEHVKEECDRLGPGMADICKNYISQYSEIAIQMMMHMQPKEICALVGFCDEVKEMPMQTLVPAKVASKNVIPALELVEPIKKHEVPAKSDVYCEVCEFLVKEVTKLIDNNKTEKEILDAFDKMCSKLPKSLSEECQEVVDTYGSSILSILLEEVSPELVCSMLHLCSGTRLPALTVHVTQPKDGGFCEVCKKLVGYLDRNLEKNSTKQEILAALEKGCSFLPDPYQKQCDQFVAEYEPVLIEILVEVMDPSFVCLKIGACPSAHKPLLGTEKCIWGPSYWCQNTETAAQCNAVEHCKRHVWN

EC50 [1]	EC50 [2]	Substance
1.14 nM and 3.9 nM	1.8 nM and 0.31 nM	Fc:PGRN (huPGRN fused to a normal Fc) (Fc fusion)
1.74 nM and 5.1 nM	2.2 nM and 0.47 nM	protein transport vehicle:PGRN (PTV:PGRN), expressed in Expi293 cells (Fc fusion)
